Assay results from PMC6922461.

Columns and labels:
[1] = target: monovalent Strep-Tactin-SpyCatcherΔ; assay: SPR
[2] = target: trivalent Strep-Tactin-SpyCatcher; assay: SPR
Sequence of trivalent Strep-Tactin-SpyCatcher (P22629 other isoform, or with tags, fused parts or gaps, chain 1 of 2): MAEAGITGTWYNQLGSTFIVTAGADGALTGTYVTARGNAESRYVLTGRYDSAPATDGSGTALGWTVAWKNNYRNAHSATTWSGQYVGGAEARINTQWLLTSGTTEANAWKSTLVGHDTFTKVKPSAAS
Sequence of trivalent Strep-Tactin-SpyCatcher (P22629 other isoform, or with tags, fused parts or gaps, chain 2 of 2): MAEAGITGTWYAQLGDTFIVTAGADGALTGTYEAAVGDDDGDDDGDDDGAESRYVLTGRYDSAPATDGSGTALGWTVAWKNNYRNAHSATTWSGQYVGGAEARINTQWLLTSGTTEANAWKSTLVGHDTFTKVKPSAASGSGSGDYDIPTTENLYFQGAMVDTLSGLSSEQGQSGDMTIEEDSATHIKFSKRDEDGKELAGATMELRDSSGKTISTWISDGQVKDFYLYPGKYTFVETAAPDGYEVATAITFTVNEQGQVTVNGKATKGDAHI

Sequence of monovalent Strep-Tactin-SpyCatcherΔ (P22629 other isoform, or with tags, fused parts or gaps mutant, chain 1 of 2): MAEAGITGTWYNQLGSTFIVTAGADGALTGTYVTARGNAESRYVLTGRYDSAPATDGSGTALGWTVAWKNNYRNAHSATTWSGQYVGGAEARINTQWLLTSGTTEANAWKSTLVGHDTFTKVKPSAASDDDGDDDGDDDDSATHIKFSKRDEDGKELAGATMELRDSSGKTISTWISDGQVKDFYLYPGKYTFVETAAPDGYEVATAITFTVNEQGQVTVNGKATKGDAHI
Sequence of monovalent Strep-Tactin-SpyCatcherΔ (P22629 other isoform, or with tags, fused parts or gaps mutant, chain 2 of 2): as the sequence (P22629 other isoform, or with tags, fused parts or gaps, chain 1 of 2) above, with N12A, S16D, V33E, T34A, R36V counted along it

Substance: Strep-tag II–mTFP
- Kd [1]: 43 µM

Substance: Twin-Strep-tag–mTFP fusion protein
- Kd [2]: 6.8 µM
